Assay results published in publication doi:10.1101/2025.07.08.663041.

How the values were obtained:
Caveolin-1 I121C 98W = Caveolin-1 I121C 98W (UniProt Q03135)
Caveolin-1 L125C 98W = Caveolin-1 L125C 98W (UniProt Q03135)

stoichiometry N (Caveolin-1 I121C 98W)	stoichiometry N (Caveolin-1 L125C 98W)	Substance
2		Caveolin-1 I121C 98W (from UniProt Q03135 1-178) (natural protein)
	2	Caveolin-1 L125C 98W (from UniProt Q03135 1-178) (natural protein)
